{"source": "paper PMC10583366", "about": "“OsCBL1 modulates rice nitrogen use efficiency via negative regulation of OsNRT2.2 by OsCCA1”", "binders": {"B1": {"name": "P8 (dsDNA)", "DNA 1": "CTTCAGGCCGTCATGAAAAAAAACCAGTGCATATCTCATGGCAAGAAGAAGTGCAGGTTGTGAA", "DNA 2": "TTCACAACCTGCACTTCTTCTTGCCATGAGATATGCACTGGTTTTTTTTCATGACGGCCTGAAG"}, "B2": {"name": "P6 (dsDNA)", "DNA 1": "TAAAAAATACCTGCAGGTGCTCTAGTTCAACTGAAGGGCCAGATTTAGCAATATCTGAGTCCTTCAAATAAATTCATCAACTAACAAACTTCAACCGAAG", "DNA 2": "CTTCGGTTGAAGTTTGTTAGTTGATGAATTTATTTGAAGGACTCAGATATTGCTAAATCTGGCCCTTCAGTTGAACTAGAGCACCTGCAGGTATTTTTTA"}, "B3": {"name": "P7 (dsDNA)", "DNA 1": "ATATGATGTGTATGGGAATTGGGATGCTGAAAACAAATGCAACTGGACACATATCTGCAACTTGTAAATAACTTTTATTTCTTTTAATGGAAAAAATGTG", "DNA 2": "CACATTTTTTCCATTAAAAGAAATAAAAGTTATTTACAAGTTGCAGATATGTGTCCAGTTGCATTTGTTTTCAGCATCCCAATTCCCATACACATCATAT"}}}
{"molecular_target": "OsCCA1 (His-OsCCA1; Nhd1) (Oryza sativa, UniProt A0A0P0XBU0 1-719)", "sequence (A0A0P0XBU0 whole entry)": "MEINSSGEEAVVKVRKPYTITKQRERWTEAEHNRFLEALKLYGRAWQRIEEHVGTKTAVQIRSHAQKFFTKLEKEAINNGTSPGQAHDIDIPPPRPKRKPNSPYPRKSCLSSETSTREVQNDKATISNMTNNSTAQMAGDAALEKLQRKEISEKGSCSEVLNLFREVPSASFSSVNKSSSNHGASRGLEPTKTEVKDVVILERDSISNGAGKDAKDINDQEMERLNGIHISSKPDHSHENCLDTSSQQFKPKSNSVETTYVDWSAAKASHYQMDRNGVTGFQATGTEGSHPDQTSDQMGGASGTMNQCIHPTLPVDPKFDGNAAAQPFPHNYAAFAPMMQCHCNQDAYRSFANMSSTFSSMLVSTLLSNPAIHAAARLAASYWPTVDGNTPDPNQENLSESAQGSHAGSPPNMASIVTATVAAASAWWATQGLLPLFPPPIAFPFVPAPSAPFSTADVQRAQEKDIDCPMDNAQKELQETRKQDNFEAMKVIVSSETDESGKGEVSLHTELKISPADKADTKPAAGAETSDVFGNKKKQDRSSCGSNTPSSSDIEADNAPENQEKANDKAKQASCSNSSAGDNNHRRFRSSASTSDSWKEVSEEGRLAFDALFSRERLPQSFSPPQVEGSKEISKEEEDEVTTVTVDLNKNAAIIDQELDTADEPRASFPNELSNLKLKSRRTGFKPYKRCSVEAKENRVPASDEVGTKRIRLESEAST", "assay": "EMSA; 10 mM Tris-HCl pH 7.5, 50 mM KCl, 1 mM DTT, 4 C, 40 min; 4% TBE-PAGE at 4 C, ethidium bromide stain", "conditions": "protein: recombinant; tags: His (pET-28a); ATATCT (motif)"}
{"binder": "B1", "binding result": "binds"}
{"binder": "B2", "binding result": "binds"}
{"binder": "B3", "binding result": "binds"}
